The supplement of paper PMC9170038

System: K4 kissing-loop RNA reporter
Assay: apparent KD of K4 kissing-loop reporter; higher = weaker reporter binding
Conditions: Eterna round: R107; input ligand: FMN 200 uM
Procedure: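 RNA-MaP round R107: designed RNA switches with theophylline, tryptophan, arginine or FMN aptamers are transcribed on-chip within common flanks. They are titrated with a labelled K4 kissing-loop RNA reporter in RNA-MaP buffer (100 mM Tris pH 7.5, 80 mM KCl, 4 mM MgCl2), without ligand or with the indicated ligand. Median apparent KD per design.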
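Further: bound reporter read as fluorescence of individual clusters on recovered sequencing chips by microscopy, with normalized cluster intensities fitted with a binding model.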

Compared with “GGAGGGAUCUCGGCCGCCACUCAUAAGAAAUGGGCCUCAGAGAUAUAGUGAUGUUAUGUAAAGAAGAGGACCGGGAGAAAGAAGG [ExTryptoB.Db]”, “UAUAUAGUGACGGCCGCCACUAUUGUGAUUUAAUUGUUAGAGUGAUGUUUUGUUGUUUGAUUUUGUAGGACCGGGUUAUAUGUUA [vnbbwzmullin]” is 7.4-fold higher in “apparent KD of K4 kissing-loop reporter” value: 0.148 µM for the first, 1.09 µM for the second.

Compared with “GUAUGUGGAAACACGUACUUAUAUCCUAAGCAGGAUAUGCGGAAACGCAGAAGGGCUACCAACGAGUUUACCCAGUGAUGUUGGG [Ex FMN A 14]”, “UACAUAUUAUUAUUUCUACAUUUAUUUAGUCAGGAUAUCGAUUAAACGAGAAGGGACAAUAUCAAGUGAUGUUUGAUAAUUCAAA [JR_SSFMNA_Sub022]” is 3.2-fold lower in “apparent KD of K4 kissing-loop reporter” value: 0.275 µM for the first, 0.0853 µM for the second.

“GUGGAAUUAUGAAAGUGGUUUUAUAAGGAAGGAGCGGCCGAAAGGCCAGGUAGGUCGCCUAUUGACAGUGAUGUUGUUAUAUGGA [#13]” and “GAUGUUUGCCGAAGGAGCGAGUAUUCGCCAGUGAUGUUGGUGAGAUAUACACGUAUCAGUGCUCAGGUAGGUCGCGGCGCUUGUU [Same State Arginine B GF 27]” are within 1.5-fold of each other in “apparent KD of K4 kissing-loop reporter” value: 0.105 µM for the first, 0.123 µM for the second.

“AAGGCCACGAGAAGGAGCGUGCUGUGGAGUGAUGUUCCAUUGUAGACCUAAGGUCUACGAGCACAGGUAGGUCGCUCGUGGUCAA [Omei KL Arginine B SS A v4]” and “AAAUUUAUAUUAGAUACCAGCAUAUUGAAAGUUUAUUAUGACAAGAGUGAUGUUCUUGUAUGCCCUUGGCAGCUGGUAUGGGUUU [KL-XTheo-B25]” are within 1.5-fold of each other in “apparent KD of K4 kissing-loop reporter” value: 0.113 µM for the first, 0.114 µM for the second.

First: AAGCAGUCGCUCGAAGCCAUCGAAGAUGGGCGAGGACCGGUACGGCCGCCACUCGGAGUGAUGUUCCGAGGACUGCAAAAUAAAA [MatMod 5 - Jieux - Exclusion - Tryptophan A]
Second: UAGUCCGGGUGAUGGUCAUCACGUGGCGGGCGAGGACCGGUACGGCCGCCACUCGACUUUGCAGUGAUGUUGCAAACCGGACAAU [Exclusion - Tryptophan A (Freestyle 22)]
The “apparent KD of K4 kissing-loop reporter” value of the first is 1.9-fold higher: 0.418 µM for the first, 0.221 µM for the second.

Going from “AAGUGUGUGGCGGCCGCCACUAGAAUCCAGUGAUGUUGGAGUUAUCAUAUAAAUGAUAAUCAACAUAGGACCGGGCCAUAUAGAA [Same State - Tryptophan B (Freestyle 7)]” to “GUCCGGAAGGCGGCUUCACGACCGUGGUGGGAGGAUAUGUCUAAGGACAGAAGGCCCAGUGAUGUUGGGCUUUAGGAGAGCCAUA [Ragele]”, the “apparent KD of K4 kissing-loop reporter” value falls from 0.639 µM to 0.31 µM (2.1-fold).

First: UUGCCCGAUGGAGAUACCAGCAGUUGUGCAGUGAUGUUGCACAAGUACUCGCUCCAUUGCUGCCCUUGGCAGCUCCCGGCGAAAA [Reoraren]
Second: GCGCAUGUUAAAGGAUAUAGCAGGUGAUACAAGAAAGUGAGUGAUGUUUAUGUAGAUGAUGAUAUGUUAGAAGGUUAACAAGCGC [abcdefghijklmnop]
The “apparent KD of K4 kissing-loop reporter” value of the first is 7.2-fold lower: 0.0959 µM for the first, 0.693 µM for the second.

First: AAGAAUGCAGGAAGGAGCGGCGGACGGAGUGAUGUUCCGGCUAGUGAUGUUAGCAAACACCGCCAGGUAGGUCGCCUGCUGCCCU [Same State Arginine B GF 6]
Second: UAAGAGGACCACUGCAAAAGUCCUCGAAUACGAGGACCGGUACGGCCGCCACUCGAUAAUUUGCAGUGAUGUUGCAAGUAAGAAU [BrourdMod 4 - Jieux - Same State Tryptophan A]
The “apparent KD of K4 kissing-loop reporter” value of the first is 1.7-fold higher: 0.207 µM for the first, 0.12 µM for the second.

First: AGCUAGUGAAACUAGUUUAAACUAGGUGAAGGAGCGAUCGAAAGAUCAGGUAGGUCGCACCUAACUGAGUGAUGUUCAGGAAAUA [KL-SSArg-A4]
Second: GCACACUAGUAAACUAGUGUGUUAACUGAAGGAGCGUGAAUAAUCACAGGUAGGUCGCAGUUUGUCAGUGAUGUUGACACGAGUG [Arg A SS t2]
The “apparent KD of K4 kissing-loop reporter” value of the first is 2.5-fold lower: 0.0671 µM for the first, 0.165 µM for the second.

First: CUGCAAAAGUCGGCCGCCACUCCGGGCCCUAUAAAUGGGCGCAGUGAUGUUGCGGCUAGGCCUCUGAGGACCGGGACUUUGUAAC [Aratan]
Second: CCAUCGCUAUUCGAUACCAGCUCCUUAGUGAUGUUAAGGUUUUACGCUCUGUAGGAGCGAAGCCCUUGGCAGCGAGUAGUGAUGG [#04 K4 Theophylline B Same State]
The “apparent KD of K4 kissing-loop reporter” value of the first is 5.9-fold lower: 0.19 µM for the first, 1.12 µM for the second.

First: GGCAUGCGUAGAGUGAUGUUCUAAGAUGAUACCAGUGCGGAAACGCACCCUUGGCAGCAUCUGACGAGCAUGCCGGCGAAAGCCU
Second: AGAGUUAUGCGAGGAUAUGCAGUUAGUACUCAAAGAGUACUAACGCAGAGUGAUGUUCUGUGAAAUGCAGAAGGUGCAUAACUCA [Omei KL FMN B SS B v5]
The “apparent KD of K4 kissing-loop reporter” value of the first is 5-fold higher: 0.792 µM for the first, 0.157 µM for the second.

First: GGGCAAGUGAGUGAUGUUCGAUGAUGCUUAAAGGAUAUGUAGGAAUACAGAAGGUUAUAUUCCCUGACAUUAGAUCUUUACAGGG [theeternabot_exclusion_KL_FMN_A_44]
Second: GACCUAAGCUAUGAUACCAGUCUGGCACGAAGAAGUGAUGUUUCCCAGCGUUUGUCACUUGACCCUUGGCAGCAUGCGAUCAGCU [theeternabot_sameState_KL_Theo_B_29]
The “apparent KD of K4 kissing-loop reporter” value of the first is 1.7-fold lower: 0.117 µM for the first, 0.197 µM for the second.

First: CGAGUGAUGUUCGUUCGUUUAUUUCGGUGACAGGAUAUGCGGAAACGCAGAAGGGUCACCUUUGAGUUACCGGAAUUAACGUUAU [Ex FMN A 29]
Second: CGAAGAUUCCAUGAUACCAGCCUCGGCCCAUAGAGUGAUGUUCUAGUCGGGUCCGUUCGCGGCCCUUGGCAGCAUUUCACCACGA [theeternabot_sameState_KL_Theo_B_44]
The “apparent KD of K4 kissing-loop reporter” value of the first is 2.9-fold higher: 0.564 µM for the first, 0.197 µM for the second.
